Measured values reported in publication PMC3117017.

Molecular target: Nluc2-H2AX (N-terminal fragment of firefly luciferase 2 fused to the N-terminus of histone H2AX) (UniProt P16104)
Assay: split reporter

reporter activity, fold above background (within 3 hour of 6 Gy x-rays): 5 fold
Substance: MDC1 BRCT domain fused to the C-terminal fragment of firefly luciferase 2 (Cluc) (domain or fragment)
